Earlier results as cited in publication PMC7019049.

Assays:
[1] = molecular target: MIG6 peptide (Homo sapiens) (UniProt Q9UJM3)
pepJIP1 (Homo sapiens) = pepJIP1 (Homo sapiens) (UniProt Q9UQF2)
Chain of UniProt Q9UQF2 (Q9UQF2 whole entry): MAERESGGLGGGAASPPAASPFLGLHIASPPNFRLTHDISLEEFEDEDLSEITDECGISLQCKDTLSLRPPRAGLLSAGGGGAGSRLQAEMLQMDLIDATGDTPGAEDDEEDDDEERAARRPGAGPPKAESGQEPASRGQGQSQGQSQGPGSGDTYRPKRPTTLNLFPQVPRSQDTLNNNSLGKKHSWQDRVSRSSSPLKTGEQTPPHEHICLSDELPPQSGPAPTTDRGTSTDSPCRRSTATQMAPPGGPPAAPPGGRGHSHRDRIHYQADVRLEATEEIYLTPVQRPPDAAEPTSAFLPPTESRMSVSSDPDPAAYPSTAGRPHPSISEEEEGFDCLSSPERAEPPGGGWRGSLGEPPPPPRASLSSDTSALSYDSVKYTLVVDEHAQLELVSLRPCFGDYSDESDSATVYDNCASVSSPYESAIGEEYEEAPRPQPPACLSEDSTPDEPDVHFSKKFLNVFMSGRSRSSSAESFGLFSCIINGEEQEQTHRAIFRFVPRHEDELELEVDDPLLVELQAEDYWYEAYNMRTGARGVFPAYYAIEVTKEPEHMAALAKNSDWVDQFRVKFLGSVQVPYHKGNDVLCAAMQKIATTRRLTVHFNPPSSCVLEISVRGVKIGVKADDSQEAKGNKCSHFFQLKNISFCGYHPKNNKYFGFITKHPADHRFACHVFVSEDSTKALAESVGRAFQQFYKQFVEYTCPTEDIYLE

Chain of UniProt Q9UJM3 (Q9UJM3 2-462): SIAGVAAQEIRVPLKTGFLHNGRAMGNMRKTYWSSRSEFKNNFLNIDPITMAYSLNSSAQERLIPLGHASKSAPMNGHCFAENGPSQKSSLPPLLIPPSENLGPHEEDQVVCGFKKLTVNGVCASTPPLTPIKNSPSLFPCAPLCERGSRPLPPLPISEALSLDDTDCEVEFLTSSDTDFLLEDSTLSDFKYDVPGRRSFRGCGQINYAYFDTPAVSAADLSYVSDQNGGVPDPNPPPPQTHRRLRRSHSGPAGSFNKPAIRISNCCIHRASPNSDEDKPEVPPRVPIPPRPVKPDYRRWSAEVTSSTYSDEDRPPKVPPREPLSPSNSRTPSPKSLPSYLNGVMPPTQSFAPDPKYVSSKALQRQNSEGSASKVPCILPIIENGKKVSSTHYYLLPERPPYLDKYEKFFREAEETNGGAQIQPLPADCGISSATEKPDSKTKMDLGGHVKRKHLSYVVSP

Kd [1]	Kd (pepJIP1 (Homo sapiens))	Substance
13 µM	–	EGFR kinase domain (from UniProt P00533)
–	0.42 µM	MAPK8 (JNK1) (from UniProt P45983)
